Test results from paper PMC9482650, “Quantitative fragmentomics allow affinity mapping of interactomes” (Nature Communications, 2022).
Values belong to the binder of their own block, whether it stands above or below them.

Experiments:
Test in all cases: holdup assay
Design in all cases: key: below the threshold = too weak to quantify, mostly under pKd 3.1 to 4
DLG4_2, P78352 = molecular target: DLG4_2, P78352
DLG4_3, P78352 = molecular target: DLG4_3, P78352
DLG5_1, Q8TDM6 = molecular target: DLG5_1, Q8TDM6
FRMPD2_1, Q68DX3 = molecular target: FRMPD2_1, Q68DX3
FRMPD2_2, Q68DX3 = molecular target: FRMPD2_2, Q68DX3
GRID2IP_1, A4D2P6 = molecular target: GRID2IP_1, A4D2P6
GRID2IP_2, A4D2P6 = molecular target: GRID2IP_2, A4D2P6
GRIP1_5, Q9Y3R0 = molecular target: T1, GRIP1_5, Q9Y3R0
T1 sequence (Q9Y3R0 568-668, limits assumed, looked up): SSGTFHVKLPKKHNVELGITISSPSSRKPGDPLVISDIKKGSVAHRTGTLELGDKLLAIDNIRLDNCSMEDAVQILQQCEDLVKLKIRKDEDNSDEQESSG

IL16_1, Q14005 = molecular target: IL16_1, Q14005
LDB3, O75112 = molecular target: LDB3, O75112
LNX2_2, Q8N448 = molecular target: T2, LNX2_2, Q8N448
T2 sequence (Q8N448 334-432, limits assumed, looked up): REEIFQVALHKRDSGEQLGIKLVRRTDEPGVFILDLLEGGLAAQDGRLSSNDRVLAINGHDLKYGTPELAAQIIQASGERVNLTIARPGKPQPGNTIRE

MAGI2_2, Q86UL8 = molecular target: MAGI2_2, Q86UL8
MAGI2_3, Q86UL8 = molecular target: MAGI2_3, Q86UL8
MAGI2_5, Q86UL8 = molecular target: MAGI2_5, Q86UL8
MAGI3_2, Q5TCQ9 = molecular target: MAGI3_2, Q5TCQ9
MPDZ_12, O75970 = molecular target: T3, MPDZ_12, O75970
T3 sequence (O75970 1857-1958, limits assumed, looked up): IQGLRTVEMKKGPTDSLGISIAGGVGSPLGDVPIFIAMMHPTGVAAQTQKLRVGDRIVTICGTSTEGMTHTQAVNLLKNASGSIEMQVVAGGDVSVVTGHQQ

NHERF3_4, Q5T2W1 = molecular target: T4, NHERF3_4, Q5T2W1
T4 sequence (Q5T2W1 373-468, limits assumed, looked up): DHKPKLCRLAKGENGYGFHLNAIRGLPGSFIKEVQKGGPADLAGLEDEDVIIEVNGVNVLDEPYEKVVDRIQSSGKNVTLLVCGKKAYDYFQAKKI

NOS1, P29475 = molecular target: NOS1, P29475
PARD3_3, Q8TEW0 = molecular target: PARD3_3, Q8TEW0
PDZRN3_1, Q9UPQ7 = molecular target: T5, PDZRN3_1, Q9UPQ7
T5 sequence (Q9UPQ7 244-349, limits assumed, looked up): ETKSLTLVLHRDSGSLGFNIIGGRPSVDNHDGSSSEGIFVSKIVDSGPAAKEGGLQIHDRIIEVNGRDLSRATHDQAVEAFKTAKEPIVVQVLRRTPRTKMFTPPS

SCRIB_2, Q14160 = molecular target: SCRIB_2, Q14160
SNTG1, Q9NSN8 = molecular target: T6, SNTG1, Q9NSN8
T6 sequence (Q9NSN8 52-150, limits assumed, looked up): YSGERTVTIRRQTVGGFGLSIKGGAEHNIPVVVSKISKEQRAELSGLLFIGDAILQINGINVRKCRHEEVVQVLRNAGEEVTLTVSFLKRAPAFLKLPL

SNTG2, Q9NY99 = molecular target: T7, SNTG2, Q9NY99
T7 sequence (Q9NY99 68-166, limits assumed, looked up): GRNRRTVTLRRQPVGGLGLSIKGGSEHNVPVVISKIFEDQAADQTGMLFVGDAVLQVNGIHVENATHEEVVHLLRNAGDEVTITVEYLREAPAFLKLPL

SNX27, Q96L92 = molecular target: SNX27, Q96L92
SYNJ2BP, P57105 = molecular target: T8, SYNJ2BP, P57105
T8 sequence (P57105 8-110, limits assumed, looked up): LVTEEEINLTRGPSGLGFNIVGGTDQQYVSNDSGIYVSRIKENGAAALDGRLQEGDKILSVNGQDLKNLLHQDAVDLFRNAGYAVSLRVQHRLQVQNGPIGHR

TIAM2, Q8IVF5 = molecular target: T9, TIAM2, Q8IVF5
T9 sequence (Q8IVF5 885-986, limits assumed, looked up): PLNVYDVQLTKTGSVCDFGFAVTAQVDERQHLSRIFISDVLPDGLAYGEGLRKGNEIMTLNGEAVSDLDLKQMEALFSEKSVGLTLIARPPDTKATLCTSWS

TJP1_2, Q07157 = molecular target: TJP1_2, Q07157
TX1BP3, O14907 = molecular target: T10, TX1BP3, O14907
T10 sequence (O14907 10-122, limits assumed, looked up): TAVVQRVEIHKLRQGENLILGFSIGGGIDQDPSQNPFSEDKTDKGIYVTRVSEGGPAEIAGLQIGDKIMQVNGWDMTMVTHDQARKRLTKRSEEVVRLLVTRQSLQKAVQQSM

[1] = plain residues with an end cap or a label only (N-terminal biotin on a linker: ttds)
[2] = plain residues with an end cap or a label only (N-terminal biotin on a linker: ado-ado)

Chain of TJP1_2, Q07157 (Q07157 181-274): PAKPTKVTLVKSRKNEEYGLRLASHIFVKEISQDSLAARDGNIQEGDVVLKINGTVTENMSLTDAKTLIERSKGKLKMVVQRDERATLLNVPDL
Chain of DLG4_2, P78352 (P78352 155-259): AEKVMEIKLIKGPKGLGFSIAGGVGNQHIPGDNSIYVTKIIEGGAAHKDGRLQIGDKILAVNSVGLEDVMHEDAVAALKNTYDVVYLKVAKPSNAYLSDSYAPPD
Chain of FRMPD2_2, Q68DX3 (Q68DX3 944-1038): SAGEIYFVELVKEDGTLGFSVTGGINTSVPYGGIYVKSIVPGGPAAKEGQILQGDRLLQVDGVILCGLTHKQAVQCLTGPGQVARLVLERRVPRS
Chain of DLG4_3, P78352 (P78352 306-403): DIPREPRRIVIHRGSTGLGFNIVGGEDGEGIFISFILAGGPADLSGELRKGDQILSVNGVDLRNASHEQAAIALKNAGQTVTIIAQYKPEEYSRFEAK
Chain of LDB3, O75112 (O75112 1-94): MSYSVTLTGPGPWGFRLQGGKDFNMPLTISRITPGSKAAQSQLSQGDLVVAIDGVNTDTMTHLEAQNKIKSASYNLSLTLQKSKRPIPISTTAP
Chain of GRID2IP_1, A4D2P6 (A4D2P6 1-87): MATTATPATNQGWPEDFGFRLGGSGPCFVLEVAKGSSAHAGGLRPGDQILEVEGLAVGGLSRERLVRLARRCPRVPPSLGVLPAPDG
Chain of MAGI3_2, Q5TCQ9 (Q5TCQ9 398-503): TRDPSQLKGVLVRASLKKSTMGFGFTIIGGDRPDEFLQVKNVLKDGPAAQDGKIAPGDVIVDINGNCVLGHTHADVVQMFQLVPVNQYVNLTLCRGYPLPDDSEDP
Chain of GRID2IP_2, A4D2P6 (A4D2P6 272-370): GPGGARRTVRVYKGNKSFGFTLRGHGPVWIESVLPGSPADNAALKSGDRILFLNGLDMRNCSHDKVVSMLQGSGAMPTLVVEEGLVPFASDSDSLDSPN
Chain of MAGI2_5, Q86UL8 (Q86UL8 915-1017): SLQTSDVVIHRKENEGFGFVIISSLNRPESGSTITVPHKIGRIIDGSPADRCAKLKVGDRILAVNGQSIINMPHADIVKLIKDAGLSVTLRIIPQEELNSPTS
Chain of MAGI2_3, Q86UL8 (Q86UL8 600-682): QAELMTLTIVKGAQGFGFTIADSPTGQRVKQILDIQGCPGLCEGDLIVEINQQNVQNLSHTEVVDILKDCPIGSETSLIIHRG
Chain of IL16_1, Q14005 (Q14005 210-306): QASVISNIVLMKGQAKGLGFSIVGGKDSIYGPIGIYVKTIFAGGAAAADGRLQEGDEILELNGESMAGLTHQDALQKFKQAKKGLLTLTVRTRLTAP
Chain of PARD3_3, Q8TEW0 (Q8TEW0 582-685): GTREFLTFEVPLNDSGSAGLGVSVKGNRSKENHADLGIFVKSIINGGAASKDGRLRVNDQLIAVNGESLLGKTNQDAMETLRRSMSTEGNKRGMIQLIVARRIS
Chain of MAGI2_2, Q86UL8 (Q86UL8 410-522): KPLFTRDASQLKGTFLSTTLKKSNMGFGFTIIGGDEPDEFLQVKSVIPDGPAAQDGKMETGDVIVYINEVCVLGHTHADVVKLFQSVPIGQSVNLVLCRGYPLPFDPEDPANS
Chain of NOS1, P29475 (P29475 9-101): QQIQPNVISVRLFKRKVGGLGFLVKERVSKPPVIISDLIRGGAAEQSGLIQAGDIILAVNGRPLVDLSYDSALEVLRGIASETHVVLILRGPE
Chain of FRMPD2_1, Q68DX3 (Q68DX3 770-861): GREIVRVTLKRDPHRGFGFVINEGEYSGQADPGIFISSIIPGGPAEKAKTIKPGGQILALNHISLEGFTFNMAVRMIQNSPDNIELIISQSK
Chain of DLG5_1, Q8TDM6 (Q8TDM6 617-713): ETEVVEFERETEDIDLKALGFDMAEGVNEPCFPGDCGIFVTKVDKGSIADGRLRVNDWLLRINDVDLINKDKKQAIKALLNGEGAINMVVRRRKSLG
Chain of SCRIB_2, Q14160 (Q14160 857-960): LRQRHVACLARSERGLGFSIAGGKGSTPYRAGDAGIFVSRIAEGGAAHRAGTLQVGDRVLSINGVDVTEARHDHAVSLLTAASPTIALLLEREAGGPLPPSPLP

pKd (DLG4_2, P78352; [1]): 5.29
pKd (DLG4_3, P78352; [1]): 4.23
pKd (DLG5_1, Q8TDM6; [1]): below the threshold
pKd (FRMPD2_1, Q68DX3; [1]): below the threshold
pKd (FRMPD2_2, Q68DX3; [1]): 3.72
pKd (GRID2IP_1, A4D2P6; [1]): below the threshold
pKd (GRID2IP_2, A4D2P6; [1]): 4.01
pKd (GRIP1_5, Q9Y3R0; [1]): below the threshold
pKd (IL16_1, Q14005; [1]): 4.06
pKd (LDB3, O75112; [1]): below the threshold
pKd (LNX2_2, Q8N448; [1]): 5.21
pKd (MAGI2_2, Q86UL8; [1]): 4.18
pKd (MAGI2_3, Q86UL8; [1]): 4.4
pKd (MAGI2_5, Q86UL8; [1]): 3.63
pKd (MAGI3_2, Q5TCQ9; [1]): 4.82
pKd (MPDZ_12, O75970; [1]): below the threshold
pKd (NHERF3_4, Q5T2W1; [1]): 3.51
pKd (NOS1, P29475; [1]): 3.7
pKd (PARD3_3, Q8TEW0; [1]): 3.62
pKd (PDZRN3_1, Q9UPQ7; [1]): below the threshold
pKd (SCRIB_2, Q14160; [1]): below the threshold
pKd (SNTG1, Q9NSN8; [1]): 4.39
pKd (SNTG2, Q9NY99; [1]): 4.24
pKd (SNX27, Q96L92; [1]): 4.43
pKd (SYNJ2BP, P57105; [1]): 4.35
pKd (TIAM2, Q8IVF5; [1]): below the threshold
pKd (TJP1_2, Q07157; [1]): below the threshold
pKd (TX1BP3, O14907; [1]): 4.07
Binder: LCALPKVTTV [AGMAT, Q9BSE5]

pKd (DLG4_2, P78352; [1]): 3.55
pKd (DLG4_3, P78352; [1]): below the threshold
pKd (DLG5_1, Q8TDM6; [1]): below the threshold
pKd (FRMPD2_1, Q68DX3; [1]): below the threshold
pKd (FRMPD2_2, Q68DX3; [1]): below the threshold
pKd (GRID2IP_1, A4D2P6; [1]): below the threshold
pKd (GRID2IP_2, A4D2P6; [1]): 4.24
pKd (GRIP1_5, Q9Y3R0; [1]): 3.66
pKd (IL16_1, Q14005; [1]): 3.59
pKd (LDB3, O75112; [1]): below the threshold
pKd (LNX2_2, Q8N448; [1]): below the threshold
pKd (MAGI2_2, Q86UL8; [1]): 3.59
pKd (MAGI2_3, Q86UL8; [1]): below the threshold
pKd (MAGI2_5, Q86UL8; [1]): below the threshold
pKd (MAGI3_2, Q5TCQ9; [1]): below the threshold
pKd (MPDZ_12, O75970; [1]): below the threshold
pKd (NHERF3_4, Q5T2W1; [1]): below the threshold
pKd (NOS1, P29475; [1]): 3.52
pKd (PARD3_3, Q8TEW0; [1]): 3.64
pKd (PDZRN3_1, Q9UPQ7; [1]): 3.54
pKd (SCRIB_2, Q14160; [1]): below the threshold
pKd (SNTG1, Q9NSN8; [1]): below the threshold
pKd (SNTG2, Q9NY99; [1]): 3.7
pKd (SNX27, Q96L92; [1]): 4.04
pKd (SYNJ2BP, P57105; [1]): 3.68
pKd (TIAM2, Q8IVF5; [1]): below the threshold
pKd (TJP1_2, Q07157; [1]): below the threshold
pKd (TX1BP3, O14907; [1]): 3.71
Binder: DPRNTQTSQI [ABRAXAS2, Q15018]

pKd (DLG4_2, P78352; [2]): 4.15
pKd (DLG4_3, P78352; [2]): below the threshold
pKd (DLG5_1, Q8TDM6; [2]): below the threshold
pKd (FRMPD2_1, Q68DX3; [2]): 3.76
pKd (FRMPD2_2, Q68DX3; [2]): 3.93
pKd (GRID2IP_1, A4D2P6; [2]): 3.97
pKd (GRID2IP_2, A4D2P6; [2]): 3.98
pKd (GRIP1_5, Q9Y3R0; [2]): below the threshold
pKd (IL16_1, Q14005; [2]): below the threshold
pKd (LDB3, O75112; [2]): below the threshold
pKd (LNX2_2, Q8N448; [2]): 3.91
pKd (MAGI2_2, Q86UL8; [2]): 3.48
pKd (MAGI2_3, Q86UL8; [2]): 4.16
pKd (MAGI2_5, Q86UL8; [2]): 4.46
pKd (MAGI3_2, Q5TCQ9; [2]): 4.18
pKd (MPDZ_12, O75970; [2]): 3.82
pKd (NHERF3_4, Q5T2W1; [2]): 3.7
pKd (NOS1, P29475; [2]): 3.62
pKd (PARD3_3, Q8TEW0; [2]): below the threshold
pKd (PDZRN3_1, Q9UPQ7; [2]): 3.53
pKd (SCRIB_2, Q14160; [2]): 3.77
pKd (SNTG1, Q9NSN8; [2]): 3.76
pKd (SNTG2, Q9NY99; [2]): 3.82
pKd (SNX27, Q96L92; [2]): 4.85
pKd (SYNJ2BP, P57105; [2]): below the threshold
pKd (TIAM2, Q8IVF5; [2]): below the threshold
pKd (TJP1_2, Q07157; [2]): 3.5
pKd (TX1BP3, O14907; [2]): 3.76
Binder: TETASVCTKV [SLC23A1, Q9UHI7]
